Tests used:
Assay in all cases: ELISA signal over HTRF expression signal, P. pastoris
Conditions in all cases: remark: other sources report otherwise
11B4 = molecular target: 11B4
11F4 = molecular target: 11F4
12C6 = molecular target: 12C6
1F2 = molecular target: 1F2
27B10 = molecular target: 27B10
2C4 = molecular target: 2C4
2D9 = molecular target: 2D9
36D6 = molecular target: 36D6
50G10 = molecular target: 50G10
51G10 = molecular target: 51G10
51G3 = molecular target: 51G3
55G7 = molecular target: 55G7
56F4 = molecular target: 56F4
57B8 = molecular target: 57B8
58A5 = molecular target: 58A5
60A2 = molecular target: 60A2
61A9 = molecular target: 61A9
69G8 = molecular target: 69G8
6A1 = molecular target: 6A1
70F6 = molecular target: 70F6
71D3 = molecular target: 71D3
71H2 = molecular target: 71H2
75G5 = molecular target: 75G5
76D10 = molecular target: 76D10
78G2 = molecular target: 78G2
7A7 = molecular target: 7A7
7B6 = molecular target: 7B6
7D9 = molecular target: 7D9
81F11 = molecular target: 81F11
85A7 = molecular target: 85A7
86B3 = molecular target: 86B3
86H9 = molecular target: 86H9
8D7 = molecular target: 8D7
96A7 = molecular target: 96A7
96H8 = molecular target: 96H8
97G10 = molecular target: 97G10
9C10 = molecular target: 9C10
9C6 = molecular target: 9C6

B1: CR6261 (antibody, V domains shown)
VH: EVQLVESGAEVKKPGSSVKVSCKASGGPFRSYAISWVRQAPGQGPEWMGGIIPIFGTTKYAPKFQGRVTITADDFAGTVYMELSSLRSEDTAMYYCAKHMGYQVRETMDVWGKGTTVTVSS
VL: QSVLTQPPSVSAAPGQKVTISCSGSSSNIGNDYVSWYQQLPGTAPKLLIYDNNKRPSGIPDRFSGSKSGTSATLGITGLQTGDEANYYCATWDRRPTAYVVFGGGTKLTVLG
With B1 as the binder, how does the fold increase of ratio over parental SEQ ID NO: 6 (11B4) read?
The fold increase of ratio over parental SEQ ID NO: 6 was 3.23.

And the ratio (binding signal/HTRF signal) (11B4)?
The ratio (binding signal/HTRF signal) was 19.2.

What about the fold increase of ratio over parental SEQ ID NO: 6 (11F4) of the same binder?
The fold increase of ratio over parental SEQ ID NO: 6 was 2.54.

What about the ratio (binding signal/HTRF signal) (11F4) of the same binder?
The ratio (binding signal/HTRF signal) was 15.1.

And the fold increase of ratio over parental SEQ ID NO: 6 (12C6)?
Its fold increase of ratio over parental SEQ ID NO: 6 is 2.43.

And the ratio (binding signal/HTRF signal) (12C6)?
Its ratio (binding signal/HTRF signal) is 14.4.

What about the fold increase of ratio over parental SEQ ID NO: 6 (1F2) of the same binder?
Its fold increase of ratio over parental SEQ ID NO: 6 is 2.04.

What about the ratio (binding signal/HTRF signal) (1F2) of the same binder?
Its ratio (binding signal/HTRF signal) is 12.1.

What about the fold increase of ratio over parental SEQ ID NO: 6 (27B10) of the same binder?
The fold increase of ratio over parental SEQ ID NO: 6 was 2.75.

What about the ratio (binding signal/HTRF signal) (27B10) of the same binder?
Its ratio (binding signal/HTRF signal) is 16.3.

What about the fold increase of ratio over parental SEQ ID NO: 6 (2C4) of the same binder?
The fold increase of ratio over parental SEQ ID NO: 6 was 4.29.

What about the ratio (binding signal/HTRF signal) (2C4) of the same binder?
Its ratio (binding signal/HTRF signal) is 25.5.

What about the fold increase of ratio over parental SEQ ID NO: 6 (2D9) of the same binder?
The fold increase of ratio over parental SEQ ID NO: 6 was 2.76.

What about the ratio (binding signal/HTRF signal) (2D9) of the same binder?
The ratio (binding signal/HTRF signal) was 16.4.

And the fold increase of ratio over parental SEQ ID NO: 6 (36D6)?
Its fold increase of ratio over parental SEQ ID NO: 6 is 1.83.

What about the ratio (binding signal/HTRF signal) (36D6) of the same binder?
Its ratio (binding signal/HTRF signal) is 10.8.

What about the fold increase of ratio over parental SEQ ID NO: 6 (50G10) of the same binder?
The fold increase of ratio over parental SEQ ID NO: 6 was 4.7.

What about the ratio (binding signal/HTRF signal) (50G10) of the same binder?
The ratio (binding signal/HTRF signal) was 27.9.

And the fold increase of ratio over parental SEQ ID NO: 6 (51G10)?
The fold increase of ratio over parental SEQ ID NO: 6 was 3.73.

What about the ratio (binding signal/HTRF signal) (51G10) of the same binder?
The ratio (binding signal/HTRF signal) was 22.1.

What about the fold increase of ratio over parental SEQ ID NO: 6 (51G3) of the same binder?
The fold increase of ratio over parental SEQ ID NO: 6 was 9.97.

And the ratio (binding signal/HTRF signal) (51G3)?
Its ratio (binding signal/HTRF signal) is 59.2.

And the fold increase of ratio over parental SEQ ID NO: 6 (55G7)?
The fold increase of ratio over parental SEQ ID NO: 6 was 11.8.

And the ratio (binding signal/HTRF signal) (55G7)?
The ratio (binding signal/HTRF signal) was 70.3.

And the fold increase of ratio over parental SEQ ID NO: 6 (56F4)?
The fold increase of ratio over parental SEQ ID NO: 6 was 3.21.

And the ratio (binding signal/HTRF signal) (56F4)?
The ratio (binding signal/HTRF signal) was 19.1.

And the fold increase of ratio over parental SEQ ID NO: 6 (57B8)?
Its fold increase of ratio over parental SEQ ID NO: 6 is 1.7.

And the ratio (binding signal/HTRF signal) (57B8)?
The ratio (binding signal/HTRF signal) was 10.1.

What about the fold increase of ratio over parental SEQ ID NO: 6 (58A5) of the same binder?
Its fold increase of ratio over parental SEQ ID NO: 6 is 3.69.

What about the ratio (binding signal/HTRF signal) (58A5) of the same binder?
The ratio (binding signal/HTRF signal) was 21.9.

What about the fold increase of ratio over parental SEQ ID NO: 6 (60A2) of the same binder?
The fold increase of ratio over parental SEQ ID NO: 6 was 2.53.

What about the ratio (binding signal/HTRF signal) (60A2) of the same binder?
Its ratio (binding signal/HTRF signal) is 15.

And the fold increase of ratio over parental SEQ ID NO: 6 (61A9)?
The fold increase of ratio over parental SEQ ID NO: 6 was 5.94.

What about the ratio (binding signal/HTRF signal) (61A9) of the same binder?
Its ratio (binding signal/HTRF signal) is 35.3.

What about the fold increase of ratio over parental SEQ ID NO: 6 (69G8) of the same binder?
The fold increase of ratio over parental SEQ ID NO: 6 was 8.55.

And the ratio (binding signal/HTRF signal) (69G8)?
Its ratio (binding signal/HTRF signal) is 50.8.

And the fold increase of ratio over parental SEQ ID NO: 6 (6A1)?
Its fold increase of ratio over parental SEQ ID NO: 6 is 4.63.

What about the ratio (binding signal/HTRF signal) (6A1) of the same binder?
The ratio (binding signal/HTRF signal) was 27.5.

What about the fold increase of ratio over parental SEQ ID NO: 6 (70F6) of the same binder?
Its fold increase of ratio over parental SEQ ID NO: 6 is 1.63.

And the ratio (binding signal/HTRF signal) (70F6)?
Its ratio (binding signal/HTRF signal) is 9.66.

And the fold increase of ratio over parental SEQ ID NO: 6 (71D3)?
Its fold increase of ratio over parental SEQ ID NO: 6 is 5.67.

And the ratio (binding signal/HTRF signal) (71D3)?
Its ratio (binding signal/HTRF signal) is 33.7.

And the fold increase of ratio over parental SEQ ID NO: 6 (71H2)?
The fold increase of ratio over parental SEQ ID NO: 6 was 11.2.

And the ratio (binding signal/HTRF signal) (71H2)?
The ratio (binding signal/HTRF signal) was 66.3.

And the fold increase of ratio over parental SEQ ID NO: 6 (75G5)?
The fold increase of ratio over parental SEQ ID NO: 6 was 6.38.

And the ratio (binding signal/HTRF signal) (75G5)?
Its ratio (binding signal/HTRF signal) is 37.9.

And the fold increase of ratio over parental SEQ ID NO: 6 (76D10)?
The fold increase of ratio over parental SEQ ID NO: 6 was 1.97.

What about the ratio (binding signal/HTRF signal) (76D10) of the same binder?
The ratio (binding signal/HTRF signal) was 11.7.

What about the fold increase of ratio over parental SEQ ID NO: 6 (78G2) of the same binder?
The fold increase of ratio over parental SEQ ID NO: 6 was 1.58.

What about the ratio (binding signal/HTRF signal) (78G2) of the same binder?
The ratio (binding signal/HTRF signal) was 9.36.

And the fold increase of ratio over parental SEQ ID NO: 6 (7A7)?
Its fold increase of ratio over parental SEQ ID NO: 6 is 12.4.

And the ratio (binding signal/HTRF signal) (7A7)?
Its ratio (binding signal/HTRF signal) is 73.4.

And the fold increase of ratio over parental SEQ ID NO: 6 (7B6)?
The fold increase of ratio over parental SEQ ID NO: 6 was 1.66.

And the ratio (binding signal/HTRF signal) (7B6)?
Its ratio (binding signal/HTRF signal) is 9.84.

And the fold increase of ratio over parental SEQ ID NO: 6 (7D9)?
The fold increase of ratio over parental SEQ ID NO: 6 was 2.07.

What about the ratio (binding signal/HTRF signal) (7D9) of the same binder?
The ratio (binding signal/HTRF signal) was 12.3.

And the fold increase of ratio over parental SEQ ID NO: 6 (81F11)?
The fold increase of ratio over parental SEQ ID NO: 6 was 5.37.

What about the ratio (binding signal/HTRF signal) (81F11) of the same binder?
The ratio (binding signal/HTRF signal) was 31.9.

And the fold increase of ratio over parental SEQ ID NO: 6 (85A7)?
The fold increase of ratio over parental SEQ ID NO: 6 was 4.72.

And the ratio (binding signal/HTRF signal) (85A7)?
The ratio (binding signal/HTRF signal) was 28.

And the fold increase of ratio over parental SEQ ID NO: 6 (86B3)?
The fold increase of ratio over parental SEQ ID NO: 6 was 10.5.

And the ratio (binding signal/HTRF signal) (86B3)?
Its ratio (binding signal/HTRF signal) is 62.4.

And the fold increase of ratio over parental SEQ ID NO: 6 (86H9)?
Its fold increase of ratio over parental SEQ ID NO: 6 is 5.77.

What about the ratio (binding signal/HTRF signal) (86H9) of the same binder?
The ratio (binding signal/HTRF signal) was 34.3.

What about the fold increase of ratio over parental SEQ ID NO: 6 (8D7) of the same binder?
The fold increase of ratio over parental SEQ ID NO: 6 was 1.69.

And the ratio (binding signal/HTRF signal) (8D7)?
Its ratio (binding signal/HTRF signal) is 10.

What about the fold increase of ratio over parental SEQ ID NO: 6 (96A7) of the same binder?
The fold increase of ratio over parental SEQ ID NO: 6 was 1.85.

And the ratio (binding signal/HTRF signal) (96A7)?
The ratio (binding signal/HTRF signal) was 11.

What about the fold increase of ratio over parental SEQ ID NO: 6 (96H8) of the same binder?
Its fold increase of ratio over parental SEQ ID NO: 6 is 4.8.

What about the ratio (binding signal/HTRF signal) (96H8) of the same binder?
Its ratio (binding signal/HTRF signal) is 28.5.

And the fold increase of ratio over parental SEQ ID NO: 6 (97G10)?
The fold increase of ratio over parental SEQ ID NO: 6 was 2.12.

And the ratio (binding signal/HTRF signal) (97G10)?
Its ratio (binding signal/HTRF signal) is 12.6.

And the fold increase of ratio over parental SEQ ID NO: 6 (9C10)?
The fold increase of ratio over parental SEQ ID NO: 6 was 2.91.

What about the ratio (binding signal/HTRF signal) (9C10) of the same binder?
Its ratio (binding signal/HTRF signal) is 17.3.

And the fold increase of ratio over parental SEQ ID NO: 6 (9C6)?
Its fold increase of ratio over parental SEQ ID NO: 6 is 5.54.

What about the ratio (binding signal/HTRF signal) (9C6) of the same binder?
The ratio (binding signal/HTRF signal) was 32.9.

— US20170209564A1
